Target: Dnmt3a-CD (mouse (murine)) (UniProt O88508)
Experiment: competition (inhibition of 30Uf/30Df methylation)
Conditions: 20 mM HEPES-NaOH pH 7.5, 100 mM KCl, 1 mM EDTA, 1 mM DTT, 100 uM AdoHcy, 10 nM DNA (60 nM for PWWP); FP temperature not stated; methylation competition at 37 C …

Chain of Dnmt3a-CD (mouse (murine)) (O88508 630-908): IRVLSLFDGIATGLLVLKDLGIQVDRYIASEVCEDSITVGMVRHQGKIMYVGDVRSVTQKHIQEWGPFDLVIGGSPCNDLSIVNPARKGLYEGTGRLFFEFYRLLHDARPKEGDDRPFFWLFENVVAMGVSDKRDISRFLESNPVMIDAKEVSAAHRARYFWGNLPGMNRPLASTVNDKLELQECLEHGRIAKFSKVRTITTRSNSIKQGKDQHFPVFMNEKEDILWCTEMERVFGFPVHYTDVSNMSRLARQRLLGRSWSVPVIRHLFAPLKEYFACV

Sequence: TGGGGAGGGTGAGGAGTGTGGGGAAGG [27G4-mut]
- IC50: 1100 nM
